# Columns and labels:
# [1] = biological target: Myc-GABAB1 (UniProt Q9Z0U4); assay: co-IP; cell surface immunoprecipitation: intact COS-1 cells incubated with mouse anti-Myc on ice for 3 h, then PBS or 100 μM baclofen for 15 min, lysed, protein G-agarose, Western blot; cells also expressed HA-GABAB2
# [2] = biological target: HA-GABAB2 (UniProt O88871)
# [3] = biological target: HA-GABAB1-YFP (UniProt Q9Z0U4); assay: FRET or BRET; BRET donor saturation curves in intact COS-1 cells: fixed Rluc fusion (donor) and fixed GABAB2, increasing GABAB1-YFP (acceptor); coelenterazine h 5 μM; PBS or 100 μM baclofen for 15 min; fit with a single binding site
# Chain of UniProt O88871 (O88871 41-940): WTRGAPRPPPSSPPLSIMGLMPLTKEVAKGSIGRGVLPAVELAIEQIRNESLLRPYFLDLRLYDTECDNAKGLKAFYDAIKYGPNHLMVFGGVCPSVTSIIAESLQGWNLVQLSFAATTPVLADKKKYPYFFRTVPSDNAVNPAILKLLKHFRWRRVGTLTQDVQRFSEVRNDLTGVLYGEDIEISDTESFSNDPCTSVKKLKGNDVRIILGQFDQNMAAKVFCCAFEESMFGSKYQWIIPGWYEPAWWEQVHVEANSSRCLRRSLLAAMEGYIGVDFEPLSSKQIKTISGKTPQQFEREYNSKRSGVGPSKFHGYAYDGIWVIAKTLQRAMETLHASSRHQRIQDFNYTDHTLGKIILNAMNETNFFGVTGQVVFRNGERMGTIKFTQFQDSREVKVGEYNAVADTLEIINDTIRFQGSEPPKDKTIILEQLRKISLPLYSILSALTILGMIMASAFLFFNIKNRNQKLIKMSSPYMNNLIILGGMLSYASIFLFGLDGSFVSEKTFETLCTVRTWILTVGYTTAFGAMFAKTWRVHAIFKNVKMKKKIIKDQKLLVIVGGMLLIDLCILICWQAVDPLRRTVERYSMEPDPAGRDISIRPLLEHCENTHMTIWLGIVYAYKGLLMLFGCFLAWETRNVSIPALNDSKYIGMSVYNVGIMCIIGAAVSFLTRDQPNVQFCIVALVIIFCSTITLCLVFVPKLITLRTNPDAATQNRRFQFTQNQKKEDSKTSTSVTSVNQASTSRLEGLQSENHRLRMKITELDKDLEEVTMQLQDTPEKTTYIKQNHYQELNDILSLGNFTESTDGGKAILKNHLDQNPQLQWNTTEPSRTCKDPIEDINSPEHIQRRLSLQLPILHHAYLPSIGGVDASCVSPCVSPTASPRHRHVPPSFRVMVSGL
substance,measurement,setting,value
FLAG-KCTD12 (from UniProt Q6WVG3 1-327) (natural protein),ratio of KCTD12:GABAB1 band intensity on Western blots (PBS),[1],0.84
same,ratio of KCTD12:GABAB1 band intensity on Western blots (baclofen),[1],0.91
Myc-GABAB1 (from UniProt Q9Z0U4 20-960) (receptor),Endo H-resistant fraction of GABAB1 protein in COS-1 cells co-expressing GABAB1 and GABAB2 (all GABAB1 Endo H-sensitive without GABAB2),[2],44.5%
Rluc-KCTD12 (from UniProt Q6WVG3 1-327) (natural protein),BRET50,[3],0.026
